Source: US20260166158A1, “HSP90-BINDING CONJUGATES AND FORMULATIONS THEREOF” (Fusion Pharmaceuticals Inc., priority 2019, published 2026)

Test system: NCI-H460 tumor-bearing mice (lung cancer)
Assay: Biodistribution: lutetium accumulation in tumor, plasma and healthy tissues by ICP-MS
Type: in vivo
Settings: for T/K (Tumor/Kidney ratio) / T/L (Tumor/Liver ratio) / T/P (Tumor/Plasma ratio) / Kidney uptake, % ID/g 24 h / Liver uptake, % ID/g 24 h / Plasma, % ID/g 24 h / Tumor uptake, % ID/g, 24 h / % ID/g uptake, H460 tumor, 24 h / % ID/g uptake, Kidney, 24 h / % ID/g uptake, Liver, 24 h / % ID/g uptake, Plasma, 24 h: 24 h; for Kidney uptake, % ID/g 24 h / Liver uptake, % ID/g 24 h / Plasma, % ID/g 24 h / Tumor uptake, % ID/g, 24 h: second table; for % ID/g uptake, H460 tumor, 24 h / % ID/g uptake, H460 tumor, 72 h / % ID/g uptake, Kidney, 24 h / % ID/g uptake, Kidney, 72 h / % ID/g uptake, Liver, 24 h / % ID/g uptake, Liver, 72 h / % ID/g uptake, Plasma, 24 h / % ID/g uptake, Plasma, 72 h: 0.5 mg/kg lutetium conjugate
Procedure: Lutetium accumulation was measured in tumor, plasma and healthy tissues of NCI-H460 tumor-bearing mice (lung cancer). NCJ-H460 tumor bearing mice were dosed with 0.5 mg/kg of lutetium conjugates. At the time points indicated, mice were sacrificed and tumor, liver, kidneys and plasma were taken. All tissues were analyzed for lutetium content by ICP-MS, and lutetium uptake in % ID/g determined by the following equation: […]
Biodistribution at 24 h and Tumor/Kidney ratio (T/K), Tumor/Liver ratio (T/L), Tumor/Plasma ratio (T/P) are give in the table below.

Structure (SMILES)	T/K (Tumor/Kidney ratio)	T/L (Tumor/Liver ratio)	T/P (Tumor/Plasma ratio)	Kidney uptake, % ID/g 24 h [% ID/g]	Liver uptake, % ID/g 24 h [% ID/g]	Plasma, % ID/g 24 h [% ID/g]	Tumor uptake, % ID/g, 24 h [% ID/g]	% ID/g uptake, H460 tumor, 24 h [% ID/g]	% ID/g uptake, H460 tumor, 72 h [% ID/g]	% ID/g uptake, Kidney, 24 h [% ID/g]	% ID/g uptake, Kidney, 72 h [% ID/g]	% ID/g uptake, Liver, 24 h [% ID/g]	% ID/g uptake, Liver, 72 h [% ID/g]	% ID/g uptake, Plasma, 24 h [% ID/g]	% ID/g uptake, Plasma, 72 h [% ID/g]
CCNC(=O)c1nnc(-c2cc(C(C)C)c(O)cc2O)n1-c1ccc(C2CCN(C(=O)CCOCCOCCOCCOCCOCCOCCOCCOCCOCCOCCOCCOCCNC(=O)CN3CCN4CCN5CCN(CC3)CC(=O)[O][Lu]([O]C(=O)C4)[O]C(=O)C5)CC2)cc1 [CMP33]	2.05	3.64	5.11	1.62	0.91	0.65	3.32	–	–	–	–	–	–	–	–
CCNC(=O)c1nnc(-c2cc(C(C)C)c(O)cc2O)n1-c1ccc(CC2CCN(C(=O)CCOCCOCCOCCOCCOCCOCCOCCOCCOCCOCCOCCOCCNC(=O)CN3CCN4CCN5CCN(CC3)CC(=O)[O][Lu]([O]C(=O)C4)[O]C(=O)C5)CC2)cc1 [CMP34]	3.96	3.06	5.54	1.12	1.45	0.80	4.43	–	–	–	–	–	–	–	–
CCNC(=O)c1nnc(-c2cc(C(C)C)c(O)cc2O)n1-c1ccc(OC2CCN(C(=O)CCNC(=O)[C@@H](CCC(=O)N3CCC(Oc4ccc(-n5c(C(=O)NCC)nnc5-c5cc(C(C)C)c(O)cc5O)cc4)CC3)NC(=O)CCOCCOCCOCCOCCNC(=O)CN3CCN4CCN5CCN(CC3)CC(=O)[O][Lu]([O]C(=O)C4)[O]C(=O)C5)CC2)cc1 [CMP35]	0.74	0.50	3.97	11.87	17.67	2.212	8.776	–	–	–	–	–	–	–	–
CCNC(=O)c1nnc(-c2cc(C(C)C)c(O)cc2O)n1-c1ccc(OC2CCN(C(=O)CCNC(=O)[C@@H](CCC(=O)N3CCC(Oc4ccc(-n5c(C(=O)NCC)nnc5-c5cc(C(C)C)c(O)cc5O)cc4)CC3)NC(=O)CCOCCOCCOCCOCCOCCOCCOCCOCCOCCOCCOCCOCCNC(=O)CN3CCN4CCN5CCN(CC3)CC(=O)[O][Lu]([O]C(=O)C4)[O]C(=O)C5)CC2)cc1 [CMP36]	0.99	0.41	7.34	3.36	8.16	0.45	3.32	–	–	–	–	–	–	–	–
CCNC(=O)c1nnc(-c2cc(C(C)C)c(O)cc2O)n1-c1ccc(OC2CCN(C(=O)CCOCCOCCOCCOCCNC(=O)CN3CCN4CCN5CCN(CC3)CC(=O)[O][Lu]([O]C(=O)C4)[O]C(=O)C5)CC2)cc1 [CMP39]	3.63	3.67	4.25	0.48	0.47	0.41	1.74	–	–	–	–	–	–	–	–
CC(C)c1cc(-c2nnc(O)n2-c2ccc(OC3CCN(C(=O)CCOCCOCCOCCOCCNC(=O)CN4CCN5CCN6CCN(CC4)CC(=O)[O][Lu]([O]C(=O)C5)[O]C(=O)C6)CC3)cc2)c(O)cc1O [CMP40]	5.08	62.28	29.23	0.14	0.01	0.02	0.71	–	–	–	–	–	–	–	–
CCNC(=O)c1nnc(-c2cc(C(C)C)c(O)cc2O)n1-c1ccc(OC2CCN(C(=O)CCOCCOCCOCCOCCOCCOCCOCCOCCOCCOCCOCCOCCNC(=O)CN3CCN4CCN5CCN(CC3)CC(=O)[O][Lu]([O]C(=O)C4)[O]C(=O)C5)CC2)cc1 [CMP41]	5.10	6.34	8.37	0.86	0.69	0.52	4.39	–	–	–	–	–	–	–	–
CC(C)c1cc(-c2nnc(O)n2-c2ccc(OC3CCN(C(=O)CCOCCOCCOCCOCCOCCOCCOCCOCCOCCOCCOCCOCCNC(=O)CN4CCN5CCN6CCN(CC4)CC(=O)[O][Lu]([O]C(=O)C5)[O]C(=O)C6)CC3)cc2)c(O)cc1O [CMP42]	2.23	9.89	26.76	0.26	0.06	0.02	0.57	–	–	–	–	–	–	–	–
CCNC(=O)c1nnc(-c2cc(C(C)C)c(O)cc2O)n1-c1ccc(CN2CCN(C(=O)C[C@H](NC(=O)CCNC(=O)[C@H](CO)NC(=O)[C@H](CO)NC(=O)[C@H](CO)NC(=O)CC[C@H](C(=O)O)N3CCN4CCN5CCN(CC3)CC(=O)[O][Lu]([O]C(=O)C5)[O]C(=O)C4)C(=O)N[C@H](C)C(=O)N3CCN(Cc4ccc(-n5c(C(=O)NCC)nnc5-c5cc(C(C)C)c(O)cc5O)cc4)CC3)CC2)cc1 [CMP44]	3.28	2.34	2.47	1.34	1.88	1.78	4.39	–	–	–	–	–	–	–	–
CCNC(=O)c1nnc(-c2cc(C(C)C)c(O)cc2O)n1-c1ccc(CN2CCN(C(=O)C[C@H](NC(=O)CCNC(=O)[C@@H](CO)NC(=O)[C@@H](CO)NC(=O)[C@@H](CO)NC(=O)CC[C@H](C(=O)O)N3CCN4CCN5CCN(CC3)CC(=O)[O][Lu]([O]C(=O)C5)[O]C(=O)C4)C(=O)N[C@H](C)C(=O)N3CCN(Cc4ccc(-n5c(C(=O)NCC)nnc5-c5cc(C(C)C)c(O)cc5O)cc4)CC3)CC2)cc1 [CMP48]	3.08	2.33	4.87	1.50	1.99	0.95	4.64	–	–	–	–	–	–	–	–
CCNC(=O)c1nnc(-c2cc(C(C)C)c(O)cc2O)n1-c1ccc(CN2CCN(C(=O)CC[C@H](NC(=O)CCNC(=O)[C@@H](CCC(=O)O)NC(=O)[C@@H](CCC(=O)O)NC(=O)[C@@H](CCC(=O)O)NC(=O)COCCOCCNC(=O)CC[C@H](C(=O)O)N3CCN4CCN5CCN(CC3)CC(=O)[O][Lu]([O]C(=O)C5)[O]C(=O)C4)C(=O)N3CCN(Cc4ccc(-n5c(C(=O)NCC)nnc5-c5cc(C(C)C)c(O)cc5O)cc4)CC3)CC2)cc1 [T5]	–	–	–	–	–	–	–	1.74	0.00	3.14	1.08	0.68	0.23	0.16	0.01
CCNC(=O)c1nnc(-c2cc(C(C)C)c(O)cc2O)n1-c1ccc2c(ccn2CCC2CCN(C(=O)CCNC(=O)[C@@H](CCC(=O)O)NC(=O)[C@@H](CCC(=O)O)NC(=O)[C@@H](CCC(=O)O)NC(=O)COCCOCCNC(=O)[C@H](CCCCNC(=O)CC[C@H](C(=O)O)N3CCN4CCN5CCN(CC3)CC(=O)[O][Lu]([O]C(=O)C5)[O]C(=O)C4)NC(=O)CCCc3ccc(I)cc3)CC2)c1 [T7]	–	–	–	–	–	–	–	7.54	4.05	24.70	13.10	1.88	1.01	4.71	0.42
CCNC(=O)c1nnc(-c2cc(C(C)C)c(O)cc2O)n1-c1ccc(OC2CCN(C(=O)CCNC(=O)[C@@H](CCC(=O)N3CCC(Oc4ccc(-n5c(C(=O)NCC)nnc5-c5cc(C(C)C)c(O)cc5O)cc4)CC3)NC(=O)CCNC(=O)[C@@H](CCC(=O)O)NC(=O)[C@@H](CCC(=O)O)NC(=O)[C@@H](CCC(=O)O)NC(=O)COCCOCCNC(=O)[C@H](CCCCNC(=O)CC[C@H](C(=O)O)N(CC)CCN3CCN4CCN(C)CC(=O)[O][Lu]([O]C(=O)C4)[O]C(=O)C3)NC(=O)CCCc3ccc(I)cc3)CC2)cc1 [T12]	–	–	–	–	–	–	–	9.01	5.87	34.00	18.60	3.73	2.03	5.08	0.41
